Data reported in the supplement of paper PMC9732359.
± gives the uncertainty stated by the source.

Experiment: protein stability index of a GFP-peptide fusion (yeast GPS) (PSI 1-4); higher = more stable; sorted into four equal gates, so the index is relative within each strain
In short: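 Each library plasmid carries Cherry plus GFP with a tiled 17-residue yeast protein peptide fused downstream, and the pooled library was carried in yeast. Mid-log cultures in leucine-free medium were sorted into four equal gates by GFP/Cherry ratio. Reads from Illumina sequencing of PCR-amplified plasmids from each gate were assigned to strains by barcodes. Per peptide, the protein stability index was computed as the summed products of gate read frequency and gate number.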

Sequence	protein stability index (doa10∆)	protein stability index (pdr5∆)	protein stability index (san1∆)	protein stability index (ubr1∆)
IANDNVITPHFITNVQS [SWI1]	2.14 ± 0.082	2.68 ± 0.076	2.41 ± 0.092	2.2 ± 0.053
VFQDNVYKIYNHVMPLK [SIN4]	1.65 ± 0.07	1.69 ± 0.096	1.69 ± 0.098	1.62 ± 0.049
EALSEKPTREPTPSVKT [RPC53]	3.11 ± 0.099	3.07 ± 0.085	3.2 ± 0.063	3.25 ± 0.089
LGMLDDNKMDSVKEDVK [SMC4]	2.12 ± 0.15	2.61 ± 0.13	2.09 ± 0.24	
DLRLGSQSLGVSNKFEK [PUP3]	3.52 ± 0.14	3.52 ± 0.16	2.94 ± 0.13	3.62 ± 0.13
PKSLNSNININVNNNNI [SWI1]	3.03 ± 0.14	2.63 ± 0.12	3.04 ± 0.066	2.81 ± 0.098
VGSEKVLQDLRLGSKKL [YJL039C/NUP192]	3.34 ± 0.13		3.38 ± 0.13	
KTFCEDPFSDVDDDQDY [GRR1]	3.46 ± 0.17	3.31 ± 0.099	3.32 ± 0.048	3.46 ± 0.1
DRELSVRNACKRLIAHD [YCG1]	2.59 ± 0.097	2.77 ± 0.27	2.49 ± 0.26	2.67 ± 0.18
QVKVKGQLGEMAKCLDN [YCS4]	3.25 ± 0.11	3.17 ± 0.13	3.19 ± 0.066	2.73 ± 0.076
DKKNSSDPNNQSLNEMV [YJL039C/NUP192]	3.07 ± 0.1	3.24 ± 0.11	3.16 ± 0.087	3.35 ± 0.071
FNTQQGIKKHSLWRRTV [YDL116W/NUP84]	2.6 ± 0.049	2.76 ± 0.043	2.77 ± 0.048	2.49 ± 0.031
LQAIQEKLNKTDENTPS [ITC1]	3.12 ± 0.098	3.08 ± 0.061	2.98 ± 0.047	2.89 ± 0.043
DEHHESFELKEEDISDL [RRP6]	3.01 ± 0.072	3.23 ± 0.084	2.9 ± 0.075	3.15 ± 0.059
ALSKFLTHPKYLNSRII [YML103C/NUP188]	1.16 ± 0.057	1.32 ± 0.077	1.38 ± 0.093	1.58 ± 0.066
VDSTFQKVSENFEAVFE [SMC3]	3.32 ± 0.088	3.38 ± 0.081	3.42 ± 0.063	3.09 ± 0.048
SQLGGNKTVNEAAKPSL [YJL041W/NSP1]	3.36 ± 0.11	3.09 ± 0.079	2.32 ± 0.17	3.26 ± 0.07
LLFAINSYQPSPFFVLD [SMC1]	2.16 ± 0.06	2 ± 0.078	2.23 ± 0.082	2.57 ± 0.044
HSDRYHRVAENWRKQKG [RPL32]		2.99 ± 0.2		2.6 ± 0.23
LAREVPQQSGKKLLINK [DPB4]	1.43 ± 0.092	2.06 ± 0.063	1.86 ± 0.1	1.58 ± 0.067
FAAILVLLVLPFTDRSV [COB]	2.88 ± 0.081	1.3 ± 0.095	1.54 ± 0.15	1.13 ± 0.065
PDTAIDSQMDEASGTPD [GRR1]	2.97 ± 0.062	3.06 ± 0.071	2.89 ± 0.064	3 ± 0.055
RSLDENRLEIKYHNDLI [SMC1]		3.2 ± 0.29	2.78 ± 0.26	3.14 ± 0.24
IFSLLTGYPDEPPAGVA [CYT1]	2.87 ± 0.18	2.52 ± 0.14	2.4 ± 0.13	2.54 ± 0.09
EDIIANYASVYPVVEVE [RRP43]	2.47 ± 0.098	2.77 ± 0.092	2.85 ± 0.14	2.72 ± 0.079
VDESLLSTLPAGKSLVS [QCR2]	2.65 ± 0.15	2.81 ± 0.22	1.85 ± 0.26	2.41 ± 0.13
EINWRHASFLCSFITQD [FAS1]	2.1 ± 0.15	2.42 ± 0.12	2.17 ± 0.21	2.14 ± 0.15

Sequence	protein stability index (doa10∆)	protein stability index (pdr5∆)	protein stability index (san1∆)	protein stability index (ubr1∆)
PQIVKLFDISREALSGR [ECM29]	3.44 ± 0.15	3.26 ± 0.1	3.59 ± 0.081	2.95 ± 0.054
EQFPFYLHDNASKVLLK [IRR1]	2.45 ± 0.081	2.47 ± 0.065	1.91 ± 0.075	2.41 ± 0.052
VTNSMRQTLAPYAVLSQ [YJR042W/NUP85]	2.33 ± 0.065	2.83 ± 0.054	2.53 ± 0.051	2.62 ± 0.048
LNLINAKLWFYIYLSHE [RPN3]	1.43 ± 0.059	1.23 ± 0.056	1.28 ± 0.095	1.44 ± 0.065
EALFQSRPDILSKIKFP [YCG1]	2.75 ± 0.067	2.62 ± 0.057	2.82 ± 0.067	3.13 ± 0.058
FTNIISRNKALELNLSV [YJL039C/NUP192]	2.64 ± 0.11	2.78 ± 0.087	2.62 ± 0.12	2.69 ± 0.088
LGMMYEQKLIDQHVINI [YCS4]	2.08 ± 0.061	2.28 ± 0.051	2.21 ± 0.064	2.08 ± 0.05
QPVLEKPLKKGSADIGA [SIR4]	3.16 ± 0.078	3.1 ± 0.061	3.08 ± 0.042	2.94 ± 0.055
KSSSNRSCVSNSNENGT [RPN4]	3.02 ± 0.06	3.08 ± 0.07	3.01 ± 0.05	3.03 ± 0.048
AVNLLNCPHSDSTQLLE [SSN2]	2.67 ± 0.15	3.3 ± 0.092	3.51 ± 0.15	2.9 ± 0.072
LYSIREDYELSPQAVSS [PRE1]	2.2 ± 0.13	2.83 ± 0.097	2.63 ± 0.062	2.38 ± 0.069
MDTIQDKLINDVTAIQT [ECM29]	3.22 ± 0.083	3.23 ± 0.1	3.2 ± 0.085	3.34 ± 0.055
SIGINDVTPADDLKQKK [RPO31]	2.99 ± 0.25			
LQNDLIHKIQNDNNLKK [RPN5]	2.96 ± 0.081	3.24 ± 0.068	3.11 ± 0.054	3.12 ± 0.065
GYDPALLNILSGLPTCD [RPN2]	2.79 ± 0.083	2.91 ± 0.11	2.39 ± 0.078	2.55 ± 0.1
EYSRDCFCEDHCDKCSV [RPB3]	3.13 ± 0.19	3.51 ± 0.15	3.24 ± 0.18	2.98 ± 0.2
LLSDVVSTSSGAAANNN [YJL041W/NSP1]	3.24 ± 0.077	3.06 ± 0.11	3.32 ± 0.047	3.52 ± 0.11
VEELMKKRRGSRIYKTI [SNU114]	1.86 ± 0.048	1.75 ± 0.053	1.62 ± 0.088	1.83 ± 0.053
MELSPTYQTERFTKFSD [YDL116W/NUP84]	3.09 ± 0.13	2.74 ± 0.17		2.79 ± 0.22
YWYWWKNGNEYNEFLYS [QCR8]	2.62 ± 0.066	2.21 ± 0.049	2.49 ± 0.06	2.56 ± 0.047
SLLTLVGSVTYQVDEDV [YJL039C/NUP192]	1.8 ± 0.1	1.67 ± 0.13	2.66 ± 0.098	1.23 ± 0.14
SDMQHIERLLKDLVTEN [PRE4]	1.63 ± 0.14	2.61 ± 0.13	2.31 ± 0.17	2.97 ± 0.15
VKVNHNEKRYATASAIA [RPL4A]	2.29 ± 0.1	2.62 ± 0.11	2.1 ± 0.12	2.18 ± 0.067
WDHPVIAGVITRSKRLS [CSN12]	2.86 ± 0.17	2.82 ± 0.11	3.13 ± 0.11	3.02 ± 0.068
IYYTPAFFHLFASLRVL [YJL039C/NUP192]	1.73 ± 0.08	1.71 ± 0.081	1.43 ± 0.13	1.75 ± 0.083
ANIQLDFPELKPYKQVK [FAS2]	3.16 ± 0.1	2.85 ± 0.094	2.97 ± 0.11	3.17 ± 0.077
